According to patent CN116478288A:

Experiments:
[1] = molecular target: 人源CD47 (on cells: hCD47-overexpressing CHO-K1; Raji) (human) (UniProt Q08722); experiment: flow cytometry, phage supernatant; MFI on human CD47 CHO-K1 over MFI on wild-type CHO-K1
[2] = molecular target: 生物素化人源CD47蛋白 (购自Acro Biosystem) (human) (UniProt Q08722); experiment: phage ELISA; biotinylated human CD47 on streptavidin plate; ratio of experiment to control
[3] = molecular target: 生物素化人源CD47蛋白 (购自Acro Biosystem) (human) (UniProt Q08722); experiment: phage ELISA; biotinylated human CD47 on streptavidin plate, phage supernatant, HRP anti-M13
[4] = molecular target: 食蟹猴CD47 (on overexpressing CHO-K1 cells) (cynomolgus monkey); experiment: flow cytometry, phage supernatant; MFI on cynomolgus CD47 CHO-K1 over MFI on wild-type CHO-K1
[5] = molecular target: 人源CD47 (on cells: hCD47-overexpressing CHO-K1; Raji) (human) (UniProt Q08722); experiment: flow cytometry, phage supernatant on CHO-K1 overexpressing human CD47, anti-M13 then fluorescent secondary
[6] = molecular target: 食蟹猴CD47 (on overexpressing CHO-K1 cells) (cynomolgus monkey); experiment: flow cytometry, phage supernatant on CHO-K1 overexpressing cynomolgus CD47, anti-M13 then fluorescent secondary
[7] = molecular target: 人源CD47 (on cells: hCD47-overexpressing CHO-K1; Raji) (human) (UniProt Q08722); experiment: flow cytometry on Raji cells (endogenous human CD47); Blank 58.3
[8] = molecular target: 人源CD47 (on cells: hCD47-overexpressing CHO-K1; Raji) (human) (UniProt Q08722); experiment: flow cytometry, purified antibody 10 ug/ml on CHO-K1 overexpressing human CD47
[9] = molecular target: 食蟹猴CD47 (on overexpressing CHO-K1 cells) (cynomolgus monkey); experiment: flow cytometry, purified antibody 10 ug/ml on CHO-K1 overexpressing cynomolgus CD47

B1: 单克隆抗体ID 1 (phage粗培液, phage-displayed) (antibody, V domains shown)
VH: QVQLQQPGAELVKPGAPVKLSCKASGYTFTSYWMNWVKQRPGRGLEWIGRIDSSDSETHYNQKFKDKATLTVDKSSSTAYIQLSSLTSEDSAVYYCARQGEGLRRSWFPYWGQGTLVIVSA
VL: DIVLTQSPASLAVSLGQRATISCRASKSVSTSGYSYIHWYQQKPGQPPKLLIYVASNLQSGVPARFSGSGSGTDFTLNIHPVEEEDAATYYCQHIRELPWTFGGGTKLEIK
B1 gave a h-CHOK1/CHOK1 (MFI ratio to wild-type CHO-K1) [1] of 13.4, a 实验/对照 (OD450 ratio) [2] of 50.6 and an OD450 (实验) [3] of 2.84 OD450. For the same binder, the c-CHOK1/CHOK1 (MFI ratio to wild-type CHO-K1) [4] was 10.7, the MFI [5] was 18300 MFI and the MFI [6] was 14600 MFI.

B2: 人源化抗体ID 4 (antibody, human IgG4 S228P, kappa, V domains shown)
VH: QVQLVQSGAEVKKPGASVKVSCKASGYTFTSYWMNWVRQAPGQGLEWMGRIDSSDSETHYNQKFKDRVTMTRDTSTSTVYMELSSLRSEDTAVYYCARQGEGLRRSWFPYWGQGTLVTVSS
VL: DIVMTQSPDSLAVSLGERATINCRASKSVSTSGYSYIHWYQQKPGQPPKLLIYVASNLQSGVPDRFSGSGSGTDFTLTISSLQAEDVAVYYCQHIRELPWTFGQGTKVEIKR
B2 gave an MFI [7] of 14200 MFI, an MFI [8] of 2040 MFI and an MFI [9] of 786 MFI.
